One experiment concerns MDA-MB-231 xenograft. Briefly: Anticancer effect in MDA-MB-231 xenograft mouse model. Type of experiment: in vivo, BALB/c nude mouse. The note with it: 75 uM/0.1 ml/mouse administered to the tumor tissue once a day. As to the method: To examine the anticancer effect of the conjugate of Example 2, a xenograft mouse model was employed. The xenograft mouse model was prepared by an […] injection of intractable breast cancer cell line MDA-MB-231 into breast tissue of 6-week old BALB/c nude mouse to form a tumor tissue.
In particular, 8×10^6 cells (in 0.08 ml of PBS with matrigel) of MDA-MB-231 (ATCC) were […] of 6-week old BALB/c nude mouse to prepare a xenograft mouse model (Orthotopic mouse model). When the tumor size reaches […], the xenograft mouse model was used in the following experiment.
The obtained results are shown in FIG. 7, and the degree (%) of tumor size reduction (tumor growth inhibition; TGI) compared to the buffer administered group calculated from the results of FIG. 7 was shown in Table 4: […]

The target in a further experiment is T1, EGFR present in A431 (Homo sapiens, UniProt P00533).
T1 construct: EGFR present in A431; host or cells: A431
Briefly: Tumor cell targeting test (confocal imaging of protein binding to A431 cells). The note with it: A431 cells treated with 7.5 or 15 ug/ml for one hour; fluorescent imaging, FIG. 2; positive control Erbitux. Type of experiment: cell-based.

A further experiment concerns A431 cells. Briefly: Cell cycle arrest test (gene transfection, DNA content by FACS). Type of experiment: cell-based. The note with it: gene transfected into A431 cells with Lipofectamine 2000; compared to p16WT; FIGS. 3 and 4. As to the method:
A vector containing a gene encoding ‘p16M7’ or ‘p16WT’ (wild-type) was transfected into A431 cells (ATCC) by liposomal transfection method using Lipofectamine 2000 (Invitrogen) (see Example 1). The transfection was performed according to a manual provided by Invitrogen. 24 hours after the transfection, the medium was exchanged with a fresh medium. At 24 hours 48 hours thereafter, DNA contents were measured by FACS.
After transfecting the p16M7 gene or p16WT gene into cells using Lipo2000, the presence of cell cycle arrest was observed. […] For labeling, pEGFP-C2 vector (Clontech) for p16WT and p16M7 (indicated as “p16 Mut” in FIG. 3). […] FIG. 4 contains graphs quantitatively showing the degree of cell cycle arrest of FIG. 3, wherein “% frequency” of Y axis refers to a value of cell population obtained through Flow jo software, each symbol in X axis refers to the follows: C2-6: using EGFP only (6 ul), C2-10: using EGFP only (10 ul), Mut: using p16M7 (6 ul or 10 ul) and WT: using p16WT (6 ul or 10 ul).
(In general: Flow cytometry measures light scatter and fluorescence of single cells or particles in a stream.)

B1: D(EGFR)-M9R-MTS-NLS-p16M7: Conjugate: anti-EGFR DARPin (SEQ ID NO: 7), MMP9 cleavage site M9R, MTS-NLS fusion peptide, p16 variant p16M7; SEQ ID NO: 35 (protein)
chain: DLGKKLLEAARAGQDDEVRILMANGADVNADDTWGWTPLHLAAYQGHLEIVEVLLKNGADVNAYDYIGWTPLHLAADGHLEIVEVLLKNGADVNASDYIGDTPLHLAAHNGHLEIVEVLLKHGADVNAQDKFGKTAFDISIDNGNEDLAEILQSGKIPRTLTAAAVALLPAVLLALLAPKKKRKMEPAAGSSMEPSADKLATAAARGRVEEVRALLEAGADPNAPNSYGRRPIQVMMMGSARVAELLLKHGAEPNSADPATSTRPVHDAAREGFLDTLVVLHRAGARLDARDAWGRTPVDLAEELGHRDVARYLRAAAGGTRGSNHARIDAAEGPSDIPD
modifications: Synthetic Conjugate (anti-EGFR DARPin-M9R- MTS-NLS-p16M7)
As for B1, the “increased anticancer effect compared to the control [Darpin(EGFR)]” value with MDA-MB-231 xenograft (versus D(EGFR) group) is “about 21.4%”.

B2: Darpin: Negative control; Mock Darpin having no binding target; SEQ ID NO: 43 (protein)
chain: GSDLGKKLLEAARAGQDDEVRILMANGADVNAEDKVGLTPLHLAAMNDHLEIVEVLLKNGADVNAIDAIGETPLHLVAMYGHLEIVEVLLKHGADVNAQDKFGKTAFDISIDNGNEDLAEILQKLN
modifications: Synthetic Non-EGFR targeting DARPin
Regarding B2, the “binding ability to EGFR present in A431” value with EGFR present in A431 was “little binding ability”.

B3: p16M7: Human p16 protein variant with seven substitutions for improved solubility (SEQ ID NO: 2) (protein)
chain: MEPAAGSSMEPSADKLATAAARGRVEEVRALLEAGADPNAPNSYGRRPIQVMMMGSARVAELLLKHGAEPNSADPATSTRPVHDAAREGFLDTLVVLHRAGARLDARDAWGRTPVDLAEELGHRDVARYLRAAAGGTRGSNHARIDAAEGPSDIPD
modifications: Synthetic Human p16 Variant
With B3, the “cell cycle arrest effect” value in the experiment with A431 cells is given as “maintaining the cell cycle arrest effect”.

B4: D(EGFR)-M9R-p16M7: Comparison conjugate lacking MTS-NLS: SEQ ID NO: 7-SEQ ID NO: 26-SEQ ID NO: 2 (protein)
chain: DLGKKLLEAARAGQDDEVRILMANGADVNADDTWGWTPLHLAAYQGHLEIVEVLLKNGADVNAYDYIGWTPLHLAADGHLEIVEVLLKNGADVNASDYIGDTPLHLAAHNGHLEIVEVLLKHGADVNAQDKFGKTAFDISIDNGNEDLAEILQSGKIPRTLTAMEPAAGSSMEPSADKLATAAARGRVEEVRALLEAGADPNAPNSYGRRPIQVMMMGSARVAELLLKHGAEPNSADPATSTRPVHDAAREGFLDTLVVLHRAGARLDARDAWGRTPVDLAEELGHRDVARYLRAAAGGTRGSNHARIDAAEGPSDIPD
modifications: Synthetic anti-EGFR DARPin-01; Synthetic MMP9 cleavage region; Synthetic Human p16 Variant
For the molecule B4, the “degree (%) of tumor size reduction (tumor growth inhibition; TGI) compared to the buffer administered group” value in the experiment on MDA-MB-231 xenograft (n=10, calculated from FIG. 7) is given as 50.0%.

Values taken from US9617344B2, “Fusion protein comprising targeting moiety, cleavage site, and cell membrane penetrating domain, and use thereof” (Samsung Electronics Co., Ltd., priority 2014, dated 2017).
